The values below are quoted from earlier work in publication PMC5408189.

The target of this data set is integrin α5β1 (Homo sapiens) (UniProt P08648). Briefly: surface plasmon resonance. For orientation: Surface plasmon resonance follows binding to a sensor surface in real time, without labels.
Chain of UniProt P08648 (P08648 42-1049, chain 1 of 2): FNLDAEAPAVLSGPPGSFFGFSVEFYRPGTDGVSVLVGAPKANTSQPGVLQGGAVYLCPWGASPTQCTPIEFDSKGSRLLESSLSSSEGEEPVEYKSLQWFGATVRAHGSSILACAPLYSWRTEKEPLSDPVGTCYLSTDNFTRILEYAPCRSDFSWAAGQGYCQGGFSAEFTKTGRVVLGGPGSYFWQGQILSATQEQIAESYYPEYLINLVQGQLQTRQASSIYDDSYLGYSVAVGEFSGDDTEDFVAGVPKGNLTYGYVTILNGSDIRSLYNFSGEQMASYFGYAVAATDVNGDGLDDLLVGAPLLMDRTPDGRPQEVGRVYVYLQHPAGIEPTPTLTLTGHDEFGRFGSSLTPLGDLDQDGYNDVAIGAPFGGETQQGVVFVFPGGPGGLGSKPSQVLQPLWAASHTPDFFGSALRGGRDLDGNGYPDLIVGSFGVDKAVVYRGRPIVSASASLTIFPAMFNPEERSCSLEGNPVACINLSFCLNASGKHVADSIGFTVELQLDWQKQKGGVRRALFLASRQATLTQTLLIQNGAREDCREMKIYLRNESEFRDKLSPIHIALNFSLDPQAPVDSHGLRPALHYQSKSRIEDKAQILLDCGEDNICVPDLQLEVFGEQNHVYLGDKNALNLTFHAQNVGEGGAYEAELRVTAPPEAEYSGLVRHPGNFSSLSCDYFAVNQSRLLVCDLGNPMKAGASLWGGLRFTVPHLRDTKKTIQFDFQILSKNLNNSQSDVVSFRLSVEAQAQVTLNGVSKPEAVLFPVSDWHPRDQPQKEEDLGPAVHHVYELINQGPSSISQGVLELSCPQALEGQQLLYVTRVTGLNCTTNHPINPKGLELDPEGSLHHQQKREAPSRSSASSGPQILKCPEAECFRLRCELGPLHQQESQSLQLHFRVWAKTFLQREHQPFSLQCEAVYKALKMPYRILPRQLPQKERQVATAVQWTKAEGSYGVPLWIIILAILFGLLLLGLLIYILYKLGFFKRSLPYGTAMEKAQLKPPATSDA
Chain of UniProt P08648 (P05556 21-798, chain 2 of 2, further chain): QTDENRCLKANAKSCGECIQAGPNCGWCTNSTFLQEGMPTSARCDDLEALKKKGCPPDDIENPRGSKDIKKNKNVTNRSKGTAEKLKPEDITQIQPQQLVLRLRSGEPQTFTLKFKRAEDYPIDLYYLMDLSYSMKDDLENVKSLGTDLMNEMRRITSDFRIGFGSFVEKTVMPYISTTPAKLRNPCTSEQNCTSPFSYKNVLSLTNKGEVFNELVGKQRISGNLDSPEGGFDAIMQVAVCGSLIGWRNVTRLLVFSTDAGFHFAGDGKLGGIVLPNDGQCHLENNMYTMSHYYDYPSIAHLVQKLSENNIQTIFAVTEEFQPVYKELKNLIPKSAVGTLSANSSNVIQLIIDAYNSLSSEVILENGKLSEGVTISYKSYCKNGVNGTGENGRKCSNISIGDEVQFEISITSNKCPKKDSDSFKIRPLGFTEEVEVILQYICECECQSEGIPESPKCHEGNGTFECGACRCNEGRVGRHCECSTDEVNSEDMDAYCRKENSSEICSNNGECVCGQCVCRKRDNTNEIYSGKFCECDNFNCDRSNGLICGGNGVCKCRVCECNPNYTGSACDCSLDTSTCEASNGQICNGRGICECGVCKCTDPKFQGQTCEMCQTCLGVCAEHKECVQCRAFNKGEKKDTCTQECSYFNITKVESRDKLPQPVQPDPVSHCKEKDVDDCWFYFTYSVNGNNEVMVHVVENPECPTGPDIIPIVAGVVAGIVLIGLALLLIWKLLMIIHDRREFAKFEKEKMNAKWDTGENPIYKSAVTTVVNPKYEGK

For orientation: Kd means the equilibrium constant for the complex coming apart. On to CagA (from UniProt P55980), for which the Kd was 0.15 nM.
